Laboratory results as given in PMC11678932, “A Signal-On Microelectrode Electrochemical Aptamer Sensor Based on AuNPs–MXene for Alpha-Fetoprotein Determination”.

Target: T1, alpha-fetoprotein (AFP) (UniProt P02771 19-609)
T1 sequence: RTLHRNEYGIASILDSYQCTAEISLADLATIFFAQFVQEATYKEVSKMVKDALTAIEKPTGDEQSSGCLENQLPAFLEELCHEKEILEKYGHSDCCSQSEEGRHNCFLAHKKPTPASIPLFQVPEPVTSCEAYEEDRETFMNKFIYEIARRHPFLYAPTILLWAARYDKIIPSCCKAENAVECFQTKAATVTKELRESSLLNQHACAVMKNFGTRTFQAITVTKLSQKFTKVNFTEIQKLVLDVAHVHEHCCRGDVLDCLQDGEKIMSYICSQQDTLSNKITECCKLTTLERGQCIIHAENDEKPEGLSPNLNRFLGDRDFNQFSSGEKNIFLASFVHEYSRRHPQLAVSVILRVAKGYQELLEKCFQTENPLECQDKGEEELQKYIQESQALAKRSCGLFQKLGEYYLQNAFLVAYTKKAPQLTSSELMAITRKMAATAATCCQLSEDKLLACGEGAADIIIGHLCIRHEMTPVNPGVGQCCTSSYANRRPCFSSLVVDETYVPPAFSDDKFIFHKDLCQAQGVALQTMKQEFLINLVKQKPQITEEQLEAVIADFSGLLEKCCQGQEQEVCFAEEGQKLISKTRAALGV
Assay: electrochemical aptasensor (DPV); signal-on; log-linear 1-300 ng/mL, LOD 0.05 ng/mL (not a Kd); Optimized: pH 7, 4 uM aptamer, 40 min aptamer and 30 min AFP incubation; PBS (0.01 M) listed as reagent; temperature not stated for binding
Conditions: protein: commercial; label: 3'-methylene blue

B1: AFP aptamer (ssDNA)
DNA: GTGACGCTCCTAACGCTGACTCAGGTGCAGTTCTCGACTCGGTCTTGATGTGGGTCCTGTCCGTCCGAACCAATC
modifications: 5'-SH; 3'-methylene blue
Question: Does B1 bind?
Answer: binds
